{
  "source": "patent US20140371143A1",
  "molecular_target": "RANKL ectodomain (eRANKL, residues 157-316) of rat (rat) (UniProt Q9ESE2)",
  "sequence (Q9ESE2 157-316 limits assumed)": "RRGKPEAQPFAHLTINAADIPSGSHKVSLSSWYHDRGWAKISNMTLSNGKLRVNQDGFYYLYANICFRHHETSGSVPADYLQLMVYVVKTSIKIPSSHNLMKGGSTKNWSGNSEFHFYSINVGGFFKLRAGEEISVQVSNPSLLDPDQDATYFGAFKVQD",
  "experiment": "crystal structure of the complex",
  "data": [
    {"substance": "RANK ectodomain (eRANK, residue 32-201) of rat (receptor)", "values": [
      {"measurement": "reduction of solvent accessible surface area on binding", "value": 7680, "unit": "Å^2"},
      {"measurement": "reduction of solvent accessible surface area on binding, share of the total accessible surface area of unbound receptors and ligands", "value": 15.4, "unit": "%"}
    ]}
  ]
}
